In article PMC10690159 one finds stoichiometry N data, which are given here for 1 substance.

For this test, the target named is SARS-CoV-2 Nsp15 catalytically inactive mutant H234A (SARS-CoV-2). Nature of the test: cryo-EM structure.

On to “SARS-CoV-2 Nsp15 catalytically inactive mutant H234A (enzyme)”, for which the stoichiometry N worked out at 6.
